# Measurements: US20160243215A1
# What was measured:
# [1] = target: 459C full-length gp160 Env on SHIV (HIV-1 clade C, isolate 459C); assay: cell-based or functional assay
# [2] = target: 405C full-length gp160 Env on SHIV (HIV-1 clade C, isolate 405C); assay: cell-based or functional assay
# [3] = target: 405C gp140 trimer (405C gp140-foldon, gp140Fd) (HIV-1 clade C, isolate 405C); assay: SPR; 3,500 RU IgG captured on protein A, Env flowed over; 1:1 model
# [4] = target: 939C gp140 trimer (939C gp140-foldon, gp140Fd) (HIV-1 clade C, isolate 939C); assay: as above
# [5] = target: 459C gp140 trimer (459C gp140-foldon, gp140Fd) (HIV-1 clade C, isolate 459C); assay: as above
# [6] = target: 405C gp140 trimer (405C gp140-foldon, gp140Fd) (HIV-1 clade C, isolate 405C); assay: SPR; IgG captured on protein A, trimer flowed over
# [7] = target: 405C gp120 monomer (HIV-1 clade C, isolate 405C); assay: SPR; IgG captured on protein A, Env flowed over; 1:1 model
# [8] = target: 939C gp120 monomer (HIV-1 clade C, isolate 939C); assay: as above
# [9] = target: 405C gp140 trimer (405C gp140-foldon, gp140Fd) (HIV-1 clade C, isolate 405C); assay: as above
# [10] = target: 459C gp120 monomer (HIV-1 clade C, isolate 459C); assay: as above
# [11] = target: 939C gp140 trimer (939C gp140-foldon, gp140Fd) (HIV-1 clade C, isolate 939C); assay: as above
# [12] = target: 459C gp140 trimer (459C gp140-foldon, gp140Fd) (HIV-1 clade C, isolate 459C); assay: as above
# [13] = target: 405C gp140 trimer (405C gp140-foldon, gp140Fd) (HIV-1 clade C, isolate 405C); assay: SPR (Example 8); IgG captured on protein A, trimer flowed over
# [14] = target: 405C gp140 trimer (405C gp140-foldon, gp140Fd) (HIV-1 clade C, isolate 405C); assay: SPR; 17b IgG captured on protein A, trimer at 1000 nM with against without bound CD4
# [15] = target: 939C gp140 trimer (939C gp140-foldon, gp140Fd) (HIV-1 clade C, isolate 939C); assay: as above
# [16] = target: 459C gp140 trimer (459C gp140-foldon, gp140Fd) (HIV-1 clade C, isolate 459C); assay: as above
# [17] = target: 405C gp120 monomer (HIV-1 clade C, isolate 405C); assay: SPR; IgG captured on protein A, Env flowed over; 1:1 model (monomer rates are rough estimates)
# [18] = target: 459C gp120 monomer (HIV-1 clade C, isolate 459C); assay: as above
# [19] = target: 405C gp140 trimer (405C gp140-foldon, gp140Fd) (HIV-1 clade C, isolate 405C); assay: SPR; 4,500 RU IgG captured on protein A, Env flowed over
# [20] = target: 939C gp140 trimer (939C gp140-foldon, gp140Fd) (HIV-1 clade C, isolate 939C); assay: as above
# [21] = target: 939C gp120 monomer (HIV-1 clade C, isolate 939C); assay: SPR; CD4 coupled to CM5 chip, Env flowed over; 1:1 model
# [22] = target: 405C gp140 trimer (405C gp140-foldon, gp140Fd) (HIV-1 clade C, isolate 405C); assay: as above
# [23] = target: 459C gp120 monomer (HIV-1 clade C, isolate 459C); assay: as above
# [24] = target: 939C gp140 trimer (939C gp140-foldon, gp140Fd) (HIV-1 clade C, isolate 939C); assay: as above
# [25] = target: 459C gp140 trimer (459C gp140-foldon, gp140Fd) (HIV-1 clade C, isolate 459C); assay: as above
# [26] = target: 405C gp120 monomer (HIV-1 clade C, isolate 405C); assay: SPR; CD4 coupled to CM5 chip, Env flowed over; 1:1 model; 405C gp120 monomer as analyte
# [27] = target: 405C gp140 trimer (405C gp140-foldon, gp140Fd) (HIV-1 clade C, isolate 405C); assay: SPR; CD4 coupled to CM5 chip, Env flowed over; 1:1 model; 405C gp140 trimer as analyte
substance,measurement,setting,value
2G12 IgG (antibody),"IC50 Titers (TZM.bl cells, ug/ml)",[1],> 50 µg/mL
same,"IC50 Titers (TZM.bl cells, ug/ml)",[2],> 50 µg/mL
PG9 IgG (antibody),Kd,[3],0.335 µM
same,koff,[3],0.000662 s⁻¹
same,kon,[3],1970 M⁻¹ s⁻¹
same,Kd,[4],0.157 µM
same,koff,[4],0.00126 s⁻¹
same,kon,[4],8010 M⁻¹ s⁻¹
same,Kd,[5],0.448 µM
same,koff,[5],0.0032 s⁻¹
same,kon,[5],7150 M⁻¹ s⁻¹
same,"IC50 Titers (TZM.bl cells, ug/ml)",[1],> 50 µg/mL
same,"IC50 Titers (TZM.bl cells, ug/ml)",[2],17.4 µg/mL
VRC01 IgG (antibody),fold lower magnitude of binding than 459C and 939C trimers,[6],5 fold
same,Kd,[7],0.0353 µM
same,koff,[7],0.000278 s⁻¹
same,kon,[7],7870 M⁻¹ s⁻¹
same,Kd,[8],0.0573 µM
same,koff,[8],0.000249 s⁻¹
same,kon,[8],4350 M⁻¹ s⁻¹
same,Kd,[9],0.00742 µM
same,koff,[9],4.52e-05 s⁻¹
same,kon,[9],6090 M⁻¹ s⁻¹
same,Kd,[10],0.328 µM
same,koff,[10],0.00109 s⁻¹
same,kon,[10],3320 M⁻¹ s⁻¹
same,Kd,[11],0.00352 µM
same,koff,[11],1.55e-05 s⁻¹
same,kon,[11],4400 M⁻¹ s⁻¹
same,Kd,[12],0.0075 µM
same,koff,[12],4.75e-05 s⁻¹
same,kon,[12],6990 M⁻¹ s⁻¹
same,fold lower magnitude of binding than Env 459C and 939C trimers,[13],5 fold
same,"IC50 Titers (TZM.bl cells, ug/ml)",[1],11.9 µg/mL
same,"IC50 Titers (TZM.bl cells, ug/ml)",[2],13.3 µg/mL
4E10 IgG (antibody),"IC50 Titers (TZM.bl cells, ug/ml)",[1],> 50 µg/mL
same,"IC50 Titers (TZM.bl cells, ug/ml)",[2],18.2 µg/mL
2F5 IgG (antibody),"IC50 Titers (TZM.bl cells, ug/ml)",[1],> 50 µg/mL
same,"IC50 Titers (TZM.bl cells, ug/ml)",[2],> 50 µg/mL
b12 IgG (antibody),"IC50 Titers (TZM.bl cells, ug/ml)",[1],> 50 µg/mL
same,"IC50 Titers (TZM.bl cells, ug/ml)",[2],> 50 µg/mL
PGT128 IgG (antibody),"IC50 Titers (TZM.bl cells, ug/ml)",[1],0.65 µg/mL
same,"IC50 Titers (TZM.bl cells, ug/ml)",[2],45.9 µg/mL
17b IgG (antibody),fold increase in magnitude of binding when the trimer is bound to CD4,[14],4 fold
same,fold increase in magnitude of binding when the trimer is bound to CD4,[15],4 fold
same,fold increase in magnitude of binding when the trimer is bound to CD4,[16],4 fold
PGT121 IgG (antibody),Kd,[9],0.0106 µM
same,koff,[9],0.000104 s⁻¹
same,kon,[9],9780 M⁻¹ s⁻¹
same,Kd,[11],0.0257 µM
same,koff,[11],0.00043 s⁻¹
same,kon,[11],16700 M⁻¹ s⁻¹
same,Kd,[12],0.00556 µM
same,koff,[12],8.73e-05 s⁻¹
same,kon,[12],15700 M⁻¹ s⁻¹
same,Kd,[17],0.0642 µM
same,koff,[17],0.000492 s⁻¹
same,kon,[17],7670 M⁻¹ s⁻¹
same,Kd,[18],0.123 µM
same,koff,[18],0.000824 s⁻¹
same,kon,[18],6720 M⁻¹ s⁻¹
sCD4 (soluble CD4) (from UniProt P01730 26-208) (receptor),"IC50 Titers (TZM.bl cells, ug/ml)",[1],48.7 µg/mL
same,"IC50 Titers (TZM.bl cells, ug/ml)",[2],> 50 µg/mL
3BNC117 IgG (antibody),fold lower magnitude of binding than 459C and 939C trimers,[6],5 fold
same,Kd,[7],0.0858 µM
same,koff,[7],0.00042 s⁻¹
same,kon,[7],4900 M⁻¹ s⁻¹
same,Kd,[8],0.172 µM
same,koff,[8],0.000961 s⁻¹
same,kon,[8],6450 M⁻¹ s⁻¹
same,Kd,[9],0.0783 µM
same,koff,[9],0.000322 s⁻¹
same,kon,[9],4110 M⁻¹ s⁻¹
same,Kd,[10],0.0951 µM
same,koff,[10],0.0005 s⁻¹
same,kon,[10],6130 M⁻¹ s⁻¹
same,Kd,[11],0.0271 µM
same,koff,[11],0.000224 s⁻¹
same,kon,[11],8330 M⁻¹ s⁻¹
same,Kd,[12],0.00124 µM
same,koff,[12],1.04e-05 s⁻¹
same,kon,[12],8500 M⁻¹ s⁻¹
same,fold lower magnitude of binding than Env 459C and 939C trimers,[13],5 fold
same,"IC50 Titers (TZM.bl cells, ug/ml)",[1],5.97 µg/mL
same,"IC50 Titers (TZM.bl cells, ug/ml)",[2],4.94 µg/mL
PG16 IgG (antibody),Kd,[19],1.45 µM
same,koff,[19],0.00151 s⁻¹
same,Kd,[20],1.26 µM
same,koff,[20],0.00286 s⁻¹
same,kon,[20],2410 M⁻¹ s⁻¹
same,"IC50 Titers (TZM.bl cells, ug/ml)",[1],6.7 µg/mL
same,"IC50 Titers (TZM.bl cells, ug/ml)",[2],2.05 µg/mL
Soluble two-domain CD4 (from UniProt P01730 26-208) (receptor),Kd,[21],0.0159 µM
same,koff,[21],0.00031 s⁻¹
same,kon,[21],19500 M⁻¹ s⁻¹
same,koff,[22],0.000196 s⁻¹
same,kon,[22],15400 M⁻¹ s⁻¹
same,Kd,[23],0.0269 µM
same,koff,[23],0.00049 s⁻¹
same,kon,[23],18200 M⁻¹ s⁻¹
same,Kd,[24],0.0125 µM
same,koff,[24],0.000206 s⁻¹
same,kon,[24],16500 M⁻¹ s⁻¹
same,Kd,[25],0.00417 µM
same,koff,[25],9.89e-05 s⁻¹
same,kon,[25],23700 M⁻¹ s⁻¹
same,koff,[26],0.000327 s⁻¹
same,kon,[26],5560 M⁻¹ s⁻¹
same,Kd,[27],0.0123 µM
PGT126 IgG (antibody),Kd,[9],0.00983 µM
same,koff,[9],0.000282 s⁻¹
same,kon,[9],28700 M⁻¹ s⁻¹
same,Kd,[11],0.00663 µM
same,koff,[11],0.000232 s⁻¹
same,kon,[11],35000 M⁻¹ s⁻¹
same,Kd,[12],0.0083 µM
same,koff,[12],0.000243 s⁻¹
same,kon,[12],29500 M⁻¹ s⁻¹
same,Kd,[17],0.0383 µM
same,koff,[17],0.0012 s⁻¹
same,kon,[17],31400 M⁻¹ s⁻¹
same,Kd,[18],0.0413 µM
same,koff,[18],0.000592 s⁻¹
same,kon,[18],14800 M⁻¹ s⁻¹
